In one experiment the target is human GPR8 (human, UniProt P48146 1-333). Description: cell-based or functional assay.
The next experiment deals with T1, human GPR7 (human, UniProt P48145 1-328).
T1 sequence: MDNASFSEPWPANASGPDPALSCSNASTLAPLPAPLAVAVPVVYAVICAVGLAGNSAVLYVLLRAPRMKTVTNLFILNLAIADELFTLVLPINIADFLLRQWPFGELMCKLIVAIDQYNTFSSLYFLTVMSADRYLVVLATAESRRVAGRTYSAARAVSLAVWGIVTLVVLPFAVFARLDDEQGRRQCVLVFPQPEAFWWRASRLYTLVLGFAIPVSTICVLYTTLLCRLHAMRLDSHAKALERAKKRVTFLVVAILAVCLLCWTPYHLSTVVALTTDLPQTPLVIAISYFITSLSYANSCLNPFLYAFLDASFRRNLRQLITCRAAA
Description: cell-based or functional assay.

Chain of human GPR8 (P48146 whole entry): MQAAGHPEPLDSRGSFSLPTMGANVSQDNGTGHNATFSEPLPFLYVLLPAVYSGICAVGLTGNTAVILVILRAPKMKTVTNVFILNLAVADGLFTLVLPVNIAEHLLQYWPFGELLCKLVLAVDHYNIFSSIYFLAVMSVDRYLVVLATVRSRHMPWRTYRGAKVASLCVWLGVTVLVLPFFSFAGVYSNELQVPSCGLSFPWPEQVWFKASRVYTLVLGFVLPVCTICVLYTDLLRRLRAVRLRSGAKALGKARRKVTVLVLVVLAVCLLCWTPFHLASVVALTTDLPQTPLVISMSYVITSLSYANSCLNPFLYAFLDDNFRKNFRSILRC

B1: human neuropeptide W (1-23) (peptide)
peptide: WYKHVASPRYHTVGRAAGLLMGL
Turning to B1, the “cAMP level in human GPR8-expressed cells, relative to FSK stimulation only” value in the experiment with human GPR8 is 31%. Besides, the “cAMP level in human GPR7-expressed cells, relative to FSK stimulation only” value in the experiment with human GPR7 stood at 46%.

(Values after patent publication US20070082364A1 (Takeda / Millennium, published 2007).)
